From patent US5817785

What was measured:
[1] = target: T1, HIV-1 Rev protein (HIV-1) (UniProt P04618); assay: filter; conditions: background affinity of starting pool
T1 sequence: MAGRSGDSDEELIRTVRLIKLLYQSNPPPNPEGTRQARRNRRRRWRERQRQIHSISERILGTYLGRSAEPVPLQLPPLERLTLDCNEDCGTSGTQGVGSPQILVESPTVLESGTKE

[2] = target: HIV-1 reverse transcriptase (HIV-RT) (HIV-1) (UniProt P04585+P04585); assay: filter

Sequence	Kd [1]	binding signal (fold higher affinity than ligand B) [2]
CCCGGAUCCUCUUUACCUCUGUGUGAGAUACAGAGUCCACAAACGUGUUCUCAAUGCACCCGGUCGGAAGGCCAUCAAUAGUCCC	100 nM	–
GGUCCGAAGUGCAACGGGAAAAUGCACUNNNNGUGARNNNNUGNUCCNNNN [extended HIV-RT ligands, Extension Motif I consensus]	–	> 10
GGUCCGAAGUGCAACGGGAAAAUGCACUNNNNNNAGNNNNNNUGNUGNNNNNNN [extended HIV-RT ligands, Extension Motif II consensus]	–	> 10
